B1: TPR 5TU (parent)
chain: GGAUCUUCUCGAUCUAACAAAAAAGACAAAUCUGCCACAAAGCUUGAGAGCAUCUUCGGAUGCAGAGGCGGCAGCCUUCGGUGGCGCGAUAGCGCCAACGUUCUCAACUAUGACACGCAAAACGCGUGCUCCGUUGAAUGGAGUUUAUCAUG

Variants at the floor of the assay were thinned out.

The data set covers variants of B1. The data set can be described thus: polymerase ribozyme fitness, log enrichment relative to wild type (log ratio); higher = more active; in vitro selection for triplet polymerase activity. An outline of the steps: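 Only genotypes with ≥10 input reads and ≥1 read per output were kept after Illumina sequencing of input and output libraries. These libraries were PCR-built, transcribed mutants of each subunit of a heterodimeric triplet polymerase ribozyme, each put through one triplicate in vitro selection round with frozen incubation at −7 °C, gel excision of extended constructs, streptavidin-bead capture and RT-PCR. Fitness is a logarithmic ratio of genotype enrichment to wild-type enrichment, from inverse-variance-weighted replicate averages, with the logarithm in base 2.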
As for U33G C38A A39U C76U C99U A150U, the “polymerase ribozyme fitness (log ratio)” value is at most -4.2. Consider A30G C54U A91U U102G U109G A110G G133C A147U, for which the “polymerase ribozyme fitness (log ratio)” value is at most -4.2. The result for C32U G81C C114G reads at most -4.2. Turning to U31C G83C A107U, the “polymerase ribozyme fitness (log ratio)” value was -4. The figure for A30U G86A C96U A107U A142U C149G is at most -4.2; for C32A G71U A91G A119G A120U U127C G136C it is at most -4.2; for U33C G59C A64G C96G U130C it is at most -4.2. For the variant U31G A60C, the “polymerase ribozyme fitness (log ratio)” value is -1.23. On to U31G A60U, for which the “polymerase ribozyme fitness (log ratio)” value turned out to be 0.29.

Consider G34U C76U C87U G124U, for which the “polymerase ribozyme fitness (log ratio)” value is at most -4.2. As for G34C C85G G141U, the “polymerase ribozyme fitness (log ratio)” value was -4.04. As for A30U G46A U55A G74A U145A, the “polymerase ribozyme fitness (log ratio)” value is at most -4.2. On to G34U G84A C95U C114G, for which the “polymerase ribozyme fitness (log ratio)” value is -4.02. With C32A U45A G80C C87G U90G G152U, the “polymerase ribozyme fitness (log ratio)” value was at most -4.2. The result for G34A G71A G88C A91C reads at most -4.2; that for C35A C79U C99U C103U, at most -4.2. The result for U31C C87A C108U U148C reads -3.95.

For G34U A39U G48A U77G C79G C95U, the “polymerase ribozyme fitness (log ratio)” value was at most -4.2. On to A30G C75G U82C C99A, for which the “polymerase ribozyme fitness (log ratio)” value is at most -4.2. The figure for U31G G68A C75G C105G C131G U139G is at most -4.2; for U31A A91G A106G G117A A119U U146C it is -1.71.

For U33C G141A, the “polymerase ribozyme fitness (log ratio)” value was -2.97. The result for A30G A49G reads at most -4.2; that for U31C C95U A97U C99U G133U A150G, at most -4.2. The result for U33G U53A G59C G84A G94A C125G U144C reads at most -4.2; that for U31A C93U A121U, -0.469; that for A30G G46A G70C U78G G86C A142C U146A, at most -4.2. The result for U31A C51G C54U A122G reads -2.68; that for C32U C43A C87G A107C C118U G124C, at most -4.2.

In the case of C32G G81A, the “polymerase ribozyme fitness (log ratio)” value is -4.14. As for C35A G65A U144C, the “polymerase ribozyme fitness (log ratio)” value was at most -4.2. The figure for A30G C123U G133U C149G is at most -4.2; for U31C C85G A89G C93U it is at most -4.2; for C35A G92A A107G it is at most -4.2. The figure for U31A G58U U146G is -0.274.

G34U G58U C87A A98C G143C: the “polymerase ribozyme fitness (log ratio)” value was at most -4.2. The result for A30G C38U G48A A66C G80U G84A C105G U109A C125A reads at most -4.2. The result for A30U A89U C93U A120G C125G G141A G143A A147C reads at most -4.2; that for U31A G143A, -0.454; that for G34A A39C C93A U104C, at most -4.2. Take U33C C43G G50C G58A G86A C105A A137G: the “polymerase ribozyme fitness (log ratio)” value is at most -4.2. Consider U33A C105U, for which the “polymerase ribozyme fitness (log ratio)” value is -3.8. The figure for C35A G94C A106G is -3.77; for C32U A60G it is -1.63; for U31G A113U U134G it is -3.56. The result for C32G U45A U56A A91U C93G A107C reads at most -4.2. As for U33C C54A U55A G83A C96A C125G G126C U127G, the “polymerase ribozyme fitness (log ratio)” value was at most -4.2. G34A U55G: the “polymerase ribozyme fitness (log ratio)” value is -0.61. Consider C35A C72U C118A G126C, for which the “polymerase ribozyme fitness (log ratio)” value was at most -4.2. Take U31G G46C C79U G117C U144C: the “polymerase ribozyme fitness (log ratio)” value was at most -4.2. On to C35A C69A C99U U127C, for which the “polymerase ribozyme fitness (log ratio)” value is at most -4.2. In the case of U33G C51U G80U C87A C96U A120G C129A U148G, the “polymerase ribozyme fitness (log ratio)” value was at most -4.2. With A30G C57U, the “polymerase ribozyme fitness (log ratio)” value was -2.81. In the case of U31A A47G A73U G83A, the “polymerase ribozyme fitness (log ratio)” value is -3.5. The figure for G34C G42A G86A U148C is at most -4.2; for U33A A40U C57U G86U G112A it is at most -4.2. The result for C32A G80U C96U A138U reads at most -4.2. The figure for U31C U148A is -2.56; for C32G C57U G83U C103A C116U U127G G143U it is at most -4.2; for C35A A47C it is -3.11.

As to G34A A41C C54A U55A C95A C103A A150C, the “polymerase ribozyme fitness (log ratio)” value was at most -4.2. Regarding U33C C38G C93G A137G G141C, the “polymerase ribozyme fitness (log ratio)” value was at most -4.2.

In the case of A30U G58C C95U U135C U144A, the “polymerase ribozyme fitness (log ratio)” value is at most -4.2. The result for C35A A60U U61G A64C U82C C85A A142C reads at most -4.2; that for C32G A40U C95A, -3.93. The result for U33A U56A C93A G94A A110C A120G U134G U145G reads at most -4.2; that for A30G A41U U55G C93U, at most -4.2; that for C35A A40U A49G C87A G112C, at most -4.2.

As for A30G A37U G50A G83C, the “polymerase ribozyme fitness (log ratio)” value is at most -4.2. The result for C35A A66C U104G reads at most -4.2; that for A30U, -2.87; that for U31A A40U A49C U61A C76G C85U, at most -4.2. U31G U33A A89G U144C U146A: the “polymerase ribozyme fitness (log ratio)” value is -4.01. Take C35A U56A U102G C105A G152A: the “polymerase ribozyme fitness (log ratio)” value was at most -4.2. The figure for C35A A98U A107U A137U is at most -4.2; for C32G G94A A97U it is at most -4.2; for G34A G88C A115C A137G it is at most -4.2. The result for A30U A39C A49C U104C C125G reads at most -4.2; that for G34C C57U G80C C149U, at most -4.2. As to U31G C54G A60G C85A C99A, the “polymerase ribozyme fitness (log ratio)” value is at most -4.2. The figure for A30G A49G U56A A66U C79U C85U G128A is at most -4.2; for U31A C85U U101A A150U it is -1.46; for C32G C76A C87A it is at most -4.2.

The values above are taken from the RNAGym collection of RNA variant scans (doi:10.1073/pnas.2313332121).
